Measured values taken from paper PMC7584632.

How the values were obtained:
[1] = target: SpyCas9 (Streptococcus pyogenes)
[2] = target: SpyCas9 (Streptococcus pyogenes); remark: listed apart in the source

Substance | mutagenesis rate by NHEJ (T7E1 assay) with the AcrIIA4-2A-Cas9 vector; SpyCas9 vector alone 8.0% [1] [%] | mutagenesis rate by NHEJ (T7E1 assay) with the AcrIIA4-Cdt1-2A-Cas9 vector; SpyCas9 vector alone 8.0% [1] [%] | repression of the target mutation at AAVS1 (T7E1 assay, ssODN template) against SpyCas9 alone [2] [%]
AcrIIA4 (natural protein) | 0.9 |  | 
AcrIIA4-hCdt1(30–120) (from UniProt Q9H211 30-120) |  | 3.7 | 79.1
